Where two headings read alike, the source gives them in different places.
Assays:
[1] = target: T1, Human Abeta1-42 biotinylated at the peptide C-terminus (human, biotin at the peptide C-terminus); assay: target capture ELISA
T1 construct: also called biotinylated Abeta1-42
Method: (§1) Briefly, a Nunc MaxiSorp 96-well plate (Nunc) was coated for 18 h at 4° C. with 50 μL of 5 pg/mL goat anti-mouse IgG, Fc-gamma fragment specific antibody (Jackson Immune Research) diluted in carbonate-bicarbonate buffer. The plate was then washed 4-times with 300 μL of PBS containing 0.05% Tween20 (Millipore). To block non-specific binding to the plate, freshly prepared solution of PBS containing 0.05% Tween20 and 1% BSA, was added to each well (100 μL/well) and the plate was incubated for 1 h at 37° C. […] Subsequently, the plate was washed 4-times with 300 μL of PBS containing 0.05% Tween20. […] After washing 4-times with 300 μL of PBS containing 0.05% Tween20, the plate was incubated for 45 min at ambient temperature with 50 μL/well of streptavidin-HRP (R&D systems) diluted 1:200 in PBS containing 1% BSA and 0.05% Tween20. The plate was again washed 4-times with 300 μL of PBS containing 0.05% Tween20 before incubating at ambient temperature for 20 or 30 min with 50 or 100 μL/well of 3,3′,5,5′-tetramethylbenzidine (TMB) enzyme substrate (BD Bioscience). Reaction was stopped with a 1.2 M HCl (Sigma) solution. Finally, optical densities (O.D.) were read at 450 nm absorption wavelength using a Tecan Infinite plate reader.

[2] = target: T2, full-length sAPPalpha fragment (UniProt P05067-4 18-612, limits assumed); assay: indirect ELISA, sAPPalpha coated
T2 construct: domain: sAPPalpha; Bought protein; also called soluble APP alpha; soluble amyloid precursor protein alpha
T2 sequence (P05067 other isoform, or with tags, fused parts or gaps limits assumed): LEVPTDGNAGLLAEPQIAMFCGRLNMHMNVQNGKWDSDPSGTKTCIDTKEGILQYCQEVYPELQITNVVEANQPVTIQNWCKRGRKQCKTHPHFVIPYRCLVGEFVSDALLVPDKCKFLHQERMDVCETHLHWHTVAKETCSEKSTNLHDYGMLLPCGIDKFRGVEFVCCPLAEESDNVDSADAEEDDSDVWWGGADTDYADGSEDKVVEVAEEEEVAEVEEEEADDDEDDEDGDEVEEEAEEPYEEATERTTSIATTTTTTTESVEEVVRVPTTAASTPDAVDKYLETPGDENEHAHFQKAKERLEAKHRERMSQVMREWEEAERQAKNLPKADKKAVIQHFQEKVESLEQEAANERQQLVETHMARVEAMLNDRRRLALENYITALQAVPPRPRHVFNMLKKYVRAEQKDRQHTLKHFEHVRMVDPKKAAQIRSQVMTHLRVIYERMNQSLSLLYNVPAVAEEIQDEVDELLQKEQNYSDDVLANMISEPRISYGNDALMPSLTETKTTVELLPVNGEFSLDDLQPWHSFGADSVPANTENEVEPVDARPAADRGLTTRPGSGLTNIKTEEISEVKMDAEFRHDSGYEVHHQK
Method: (§2) Antibody target binding was evaluated by an enzyme-linked immunosorbent assay (ELISA). Briefly, Nunc MaxiSorp 96-well plates (Nunc) were coated for 18 h at 4° C. with 50 μL of 10 pg/mL Abeta1-42 or bovine serum albumin (BSA, Sigma) diluted in PBS. In selected assays, the full-length sAPPalpha fragment (Sigma) was additionally included by coating wells as described above, but at 4 pg/mL (0.04 μM). Plates were then washed 4-times with 300 μL of PBS containing 0.05% Tween20 (Millipore). To block non-specific binding to the plate, freshly prepared solution of PBS containing 0.05% Tween20 and 1% BSA, was added to each well (100 μL/well) and the plates were incubated for 1 h at 37° C. Primary antibodies were diluted to 100 nM in PBS containing 1% BSA and 0.05% Tween20, followed by 3-fold serial dilutions in duplicates. Solutions were added to plates at 50 μL/well and incubated for 1 h at 37° C. Subsequently, the plates were washed 4-times with 300 μL of PBS containing 0.05% Tween20. Plates were then incubated with horseradish peroxidase (HRP) conjugated goat anti-mouse secondary IgG (Abcam) for 1 h at 37° C. After final wash step (4-times with 300 μL of PBS containing 0.05% Tween20), plates were incubated with 3,3′,5,5′-tetramethylbenzidine (TMB) substrate (BD Biosciences) and reaction stopped with a Stop Solution (Sigma). Finally, optical densities (O.D.) were read at 450 nm absorption wavelength using a Tecan Infinite plate reader. Measured values are expressed as mean O.D. from a duplicate run ±1 standard deviation of the mean (S.D.).

bovine serum albumin [3] = target: T3, bovine serum albumin (bovine, UniProt P02769 25-607); assay: indirect ELISA, plate coated with BSA, antibody titrated, anti-mouse IgG-HRP, O.D. 450 nm
T3 construct: Negative control antigen; also called BSA
Method: (§3) Antibody target binding was evaluated by an enzyme-linked immunosorbent assay (ELISA). Briefly, Nunc MaxiSorp 96-well plates (Nunc) were coated for 18 h at 4° C. with 50 μL of 10 pg/mL Abeta1-42 or bovine serum albumin (BSA, Sigma) diluted in PBS. In selected assays, the full-length sAPPalpha fragment (Sigma) was additionally included by coating wells as described above, but at 4 pg/mL (0.04 μM). Plates were then washed 4-times with 300 μL of PBS containing 0.05% Tween20 (Millipore). To block non-specific binding to the plate, freshly prepared solution of PBS containing 0.05% Tween20 and 1% BSA, was added to each well (100 μL/well) and the plates were incubated for 1 h at 37° C. Primary antibodies were diluted to 100 nM in PBS containing 1% BSA and 0.05% Tween20, followed by 3-fold serial dilutions in duplicates. Solutions were added to plates at 50 μL/well and incubated for 1 h at 37° C. Subsequently, the plates were washed 4-times with 300 μL of PBS containing 0.05% Tween20. Plates were then incubated with horseradish peroxidase (HRP) conjugated goat anti-mouse secondary IgG (Abcam) for 1 h at 37° C. […] Finally, optical densities (O.D.) were read at 450 nm absorption wavelength using a Tecan Infinite plate reader. Measured values are expressed as mean O.D. from a duplicate run ±1 standard deviation of the mean (S.D.).

Abeta1-42 [4] = target: T4, Abeta1-42 (human); assay: indirect ELISA, Abeta1-42 coated, antibody titrated
T4 construct: coated on plates in the direct ELISA, in solution as analyte in the sandwich ELISA; also called human Abeta 1-42; amyloid-beta 1-42
Method: as §2

Abeta1-42 [5] = target: T4, Abeta1-42; assay: indirect ELISA, plate coated with Abeta1-42, antibody titrated, anti-mouse IgG-HRP, O.D. 450 nm
Method: as §3

Abeta1-42 [6] = target: T4, Abeta1-42; assay: as above; remark: listed apart in the source
Method: as §3

[7] = target: T1, Human Abeta1-42 biotinylated at the …; assay: capture ELISA: antibody held on anti-mouse IgG Fc-coated plate, C-terminally biotinylated Abeta1-42 titrated in solution, streptavidin-HRP, O.D. 450 nm
Method: as §1

bovine serum albumin [8] = target: T3, bovine serum albumin; assay: indirect ELISA, plate coated with BSA, antibody titrated, anti-mouse IgG-HRP, O.D. 450 nm; remark: listed apart in the source
Method: as §3

[9] = target: T1, Human Abeta1-42 biotinylated at the …; assay: target capture ELISA: antibody held by anti-mouse Fc, biotinylated Abeta1-42 titrated in solution
Method: as §1

Abeta1-42 [10] = target: T4, Abeta1-42; assay: sandwich ELISA: ACI-31-25B1-Ab2 coated as capture, analyte Abeta1-42 titrated, biotinylated ACI-24-41F12-Ab3 as detection, streptavidin-HRP, O.D. 450 nm
Method: After washing 4-times with 300 μL of PBS containing 0.05% Tween20, the plate was incubated for 45 min at ambient temperature with 50 μL/well of streptavidin-HRP (R&D systems) diluted 1:200 in PBS containing 1% BSA and 0.05% Tween20. The plate was again washed 4-times with 300 μL of PBS containing 0.05% Tween20 before incubating at ambient temperature for 20 or 30 min with 50 or 100 μL/well of 3,3′,5,5′-tetramethylbenzidine (TMB) enzyme substrate (BD Bioscience). Reaction was stopped with a 1.2 M HCl (Sigma) solution. Finally, optical densities (O.D.) were read at 450 nm absorption wavelength using a Tecan Infinite plate reader.
Briefly, a Nunc MaxiSorp 96-well plate (Nunc) was coated for 18 h at 4° C. with 50 μL of capture antibody at 5 μg/mL, diluted in carbonate-bicarbonate buffer. The plate was then washed and blocked as described in the preceding paragraph.

[11] = target: T1, Human Abeta1-42 biotinylated at the …; assay: capture ELISA: antibody held on anti-mouse IgG Fc-coated plate, C-terminally biotinylated Abeta1-42 titrated in solution, streptavidin-HRP, O.D. 450 nm; remark: listed apart in the source
Method: as §1

[12] = target: T1, Human Abeta1-42 biotinylated at the …; assay: as above; remark: listed apart in the source
Method: as §1

[13] = target: T1, Human Abeta1-42 biotinylated at the …; assay: as above; remark: listed apart in the source
Method: as §1

Binder | binding result [1] | binding result [2] | other results
ACI-8041-5A6H9-Ab1 (antibody, mouse IgG2a, kappa, V domains shown, Murine IgG2a/kappa; also called ACI-8041-5A61H9-Ab1; AC-8041-5A619-Ab1) VH: DVQLQESGPGLVKPSQSLSLTCTVTGYSITSDYAWNWIRQFPGNKLEWMGYIDYSGITSYNPSLKSRISITRDTSKNQFFLQLNSVTTEDSATYYCARISGLDYDVRAGWFASWGQGTLVTVSA VL: DIVMTQAAFSNPVTLGTSVSISCRSSKSLLHSNGITYLYWYLQKPGQSPQLLIYQMSNLASGVPDRFSSSGSGTDFTLRISRVEAEDVGVYYCAQNLERPLTFGAGTKLELKR | binds | no binding | 
ACI-8039-309D9-Ab2 (antibody, mouse IgG2a, kappa, V domains shown, Murine IgG2a/kappa; also called AC-8039-309D9-Ab2) VH: QVQLQQSGPQLVRPGASVKISCKASGNSFTSYWMHWVKQRPGQGLEWIGMIDPSDSETRLNQKFKDKATLTVDKSSSTAYMQLSSPTSEDSAVYYCAGLYFTLDYWGQGTSVTVSS VL: DILMTQSPSSLTVSAGEKVTMSCKSSQSLLASGNQNNYLAWHQQKPGRSPKILIIWASTRVSGVPDRFIGSGSGTDFTLTINSVQAEDLAVYYCQQSYSAPLTFGAGTKLELKR | binds | no binding | 
ACI-24-41F12-Ab3 (IgG2a isotype) (antibody, V domains shown, Recombinant murine IgG2a/kappa with the same VH/VL as ACI-24-41F12-Ab2; Biotinylated when used as detection antibody in the sandwich ELISA; also called ACI-24-41F12-Ab3-rec1) VH: not shown VL: DVLMTQTPLSLPVSLGDQASISCRSSQSIVHSNGNTYLEWYLQKPGQSPKLLIYKVSNRFSGVPDRFSGSGSGTDFTLKISRVEAEDLGVYYCFQGSHVPLTFGAGTKLELKR | binds |  | binding result (bovine serum albumin [3]): no binding (tested: 100 nM); Kd (Abeta1-42 [4]): 0.066 nM; EC50 (read off the curve) (Abeta1-42 [5]): ~0.07 nM
ACI-8037-109F4-Ab1 (antibody, mouse IgG2a, kappa, V domains shown, Murine IgG2a/kappa) VH: QVTLKESGPGILQPSQTLSLTCSFSGFSLSTSGMGVSWIRQPSGKGLEWLAHIYWDDDKRYNPSLKSRLTISKDTSRNQVFLKITSVDTADAGTYYCARRPIRTVVDAMDYWGQGTSVTVSL VL: DVLMTQTPLSLPVSLGDQASISCRSSQTIVHSNGNTYLEWYLQKPGQSPNLLIYKVSNRFSGVPDRFSGSGSGTDFTLKISRVEAEDLGVYYCFQGSHVPLTFGAGTKLELKR | binds |  | 
ACI-8037-103H5-Ab2 (antibody, mouse IgG2a, kappa, V domains shown, Murine IgG2a/kappa) VH: QVTLKESGPGILKPSQTLSLTCSFSGFSLSTSGMGVGWIRQPSGKGLEWLAHIWWDDDKYYNPSLKSRLTISKDSSRNQVFLKITSVDTADTATYYCVRRGTRLEDYFDFWGQGTTLTVSS VL: DVLMTQTPLSLPVSLGDQASISCRSSRSIVHSNGNTYLEWYLQKPGQSPKLLIFKVSNRFSGVPDRFSGSGSGTDFTLKISRVEAEDQGVYYCFQGSHVPLTFGAGTKLELKR | binds |  | 
ACI-8039-306H5-Ab1 (antibody, mouse IgG2a, kappa, V domains shown, Murine IgG2a/kappa; also called AC-8039-306H5-Ab1) VH: QVTLKESGPGILKPSQTLSLTCSFSGFSLSTSGMGVGWIRQPSGKGLEWLAHIWWDDDKYYNPSLKSQLTISKDTSRNQIFLKITSVDTADTATYYCVRSLYFDYWGQGTTLTVSS VL: DVVMTQTPLSLPVSLGDQASISCRSSQSLVHSNGNTYLHWYLQKPGQSPKLLIYKVSNRFSGVPDRFSGSGSGTDFTLKISRVEAEDLGVYFCSQSTHVPLTFGAGTKLELKR | binds | no binding | 
ACI-8041-3G11B3-Ab1 (antibody, mouse IgG2a, kappa, V domains shown, Murine IgG2a/kappa; also called ACD-8041-3G11B3-Ab1) VH: QVQLQQSGAELVKPGASVKLSCKASGYTFINYYIYWVKQRPGQGLEWIGEIIPSNDGTNFNEKFKTKATLTVDKSSSTAYMQLSSLTSEDSAVYYCTATGTVWGQGTLVTVSA VL: DVLMTQTPLSLPVSLGDQASISCRSSQSIVHSNGITYLEWYLQKPGQSPKLLIYKVSNRFSGVPDRFSGSGSGTDFTLKISRVEAEDLGVYYCFQGSHVPWTFGGGTKLEIKR | binds | no binding | 
ACI-8041-4G6D2-Ab1 (antibody, mouse IgG2a, kappa, V domains shown, Murine IgG2a/kappa) VH: QVQLQQSGAELVRPGASVKLSCKASGYTFTSYYMYWVKQRPGQGLEWIGEIIPSNGDTNFNEKFRSKATLTVDKSSSTAYMQLSSLTSEDSAVYYCTATGTVWGQGTLVTVSA VL: DVLMTQTPLSLPVSLGDQASISCRSSQSIVHSNGNTYLEWYLQKPGQSPKLLIYKVSNRFSGVPDRFSGSGSGTDFTLKISRVEAEDLGVYYCFQGSHVPWTFGGGTKLEIKR | binds | no binding | 
ACI-31-25B1-Ab2 (murine IgG2a with a lambda light chain) (antibody, V domains shown, also called AC-31-25B1-Ab2) VH: EVQLVESGGDLVKPGGSLKLSCAASRFTFSTYGMSWVRQTPDKRLEWVATISSGRSYTYYADSVKGRFTISRDNAKNTLYLQMSSLKSEDTAMYYCARNSNNQRDYYAMDYWGQGTSVTVSS VL: QLVLTQSSSASFSLGASAKLTCTLSSQHITYTIEWYQQQPLKPPKYVMVLEKDGSHSTGDGIPDRFSGSSSGADRYLSISNIQPEDEAVYICGVGDAIKEQFVYVFGGGTKVTVLG |  |  | EC50 (read off the curve) (Abeta1-42 [6]): ~0.04 nM; EC50 (read off the curve) [7]: ~0.4 nM; binding result (bovine serum albumin [8]): no binding (tested: 100 nM); Kd [9]: 0.312 nM; Kd (Abeta1-42 [4]): 0.041 nM; EC50 (read off the curve) (Abeta1-42 [10]): ~9 nM
ACI-8039-307F7-Ab2 (antibody, mouse IgG2a, kappa, V domains shown, Murine IgG2a/kappa; also called AC-8039-307F7-Ab2) VH: QVQLQQPGAELVRPGGSVKLSCKASGYSFTNYWMNWVKQRPGQGLEWIGMIHPSDSETRLNQKFKDKATLTVDKSSSTAYLQLSSPTSEDSAVYYCAKLLLYYFDYWGQGTTLTVSS VL: not shown | binds | no binding | 
ACI-8041-2B9H5-Ab1 (antibody, mouse IgG2a, kappa, V domains shown, Murine IgG2a/kappa; also called AC-8041-2B95-Ab1) VH: QVQLQQSDAELVKPGASVKISCKVSGYTFTDHPIHWMKQRPDQGLEWIGYFYPRDSSTHYNEKFKGKATLTADKSSSTAYMQLNSLTSEDSAVYFCARSMGYWGQGTSVTVSS VL: DIKMTQSPSSMYASLGERVTITCKASQDINSYLSWFQQKPGKSPKTLIYRANRLVDGVPSRFSGSGSGQDYSLTISSLDYEDMGIYYCLQYDEFPPTFGAGTKLELKR | binds | no binding | 
ACI-8041-9D7E1-Ab1 (antibody, mouse IgG2a, kappa, V domains shown, Murine IgG2a/kappa) VH: EVMLVESGGGLVKPGGSLKLSCAASGFTFSSYAMSWVRQTPEKRLEWVATISSGGNYTYCPDSVKGRFTISRDNAKNTLYLQMSSLRSEDTAMYYCAAYAYDDGYYFDYWGQGTTLTVSS VL: not shown |  | no binding | EC50 (read off the curve) [11]: ~1 nM; Kd [9]: 1.1 nM
ACI-8041-10H3B11-Ab1 (antibody, mouse IgG2a, kappa, V domains shown, Murine IgG2a/kappa; Same VH as ACI-8041-9D7E1-Ab1; also called ACI-8041-11B3B11-Ab1; AC-8041-13B11-Ab) VH: EVMLVESGGGLVKPGGSLKLSCAASGFTFSSYAMSWVRQTPEKRLEWVATISSGGNYTYCPDSVKGRFTISRDNAKNTLYLQMSSLRSEDTAMYYCAAYAYDDGYYFDYWGQGTTLTVSS VL: DIQMTQSPSSLSASLGGKVTITCKASQDINKYIAWYQHKPGKGPRLLIHYTSTLQPGIPSRFSGSGSGRDYSFSISNLGPEDIATYYCLQYDNLLTFGGGTKLEIKR |  | no binding | Kd [9]: 2.6 nM; EC50 (read off the curve) [12]: ~2 nM
ACI-8041-1F11B5-Ab1 (antibody, mouse IgG2a, kappa, V domains shown, Murine IgG2a/kappa; also called ACI-8041-1F111B5-Ab1; ACI-8041- F1B5-Ab1) VH: QVQLKESGPGLVAPSQSLSITCTVSGFSLTNYGVSWIRQPPGKGLEWLGVIWGDGSTNYHSALISRLSISKDNSKSQVFLKLNSLQTDDTATYYCTKGAGSWGQGIPVTVSA VL: not shown |  | no binding | Kd [9]: 0.343 nM; EC50 (read off the curve) [13]: ~0.3 nM
ACI-8041-5A2D4-Ab1 (antibody, mouse IgG2a, kappa, V domains shown, Murine IgG2a/kappa) VH: EVQLQQSGPELVKPGASVKISCKTSGYTFTENTMHWVKQIHGKSLEWIGGINPNNGVTNNNQKFEGKATLTVDKSSSTAYMELRSLTSEDSAVYYCARSDYDALYYSMDCWGQGTSVTVSS VL: EIVLTQSPTTMAASPGEKITITCSGSSSIISNYLHWYQQKPGFSPKLLIYRTSNLASGVPTRFSGSGSGTSYSLTIGTMEAEDVATYYCQQGSSIPFTFGSGTKLEIKR | binds | no binding | 
ACI-8041-6C3C4-Ab1 (antibody, mouse IgG2a, kappa, V domains shown, Murine IgG2a/kappa; also called ACD-8041-63C4-Ab1) VH: EVQLQQSGPELVKPGASVNISCKTSGYTFTEYTMHWMKQSHGKSLEWIGGINPNNGVTGYNQKFKGRATLTVDKSSSTAYMELRSLTSEDSAVYYCARSDYDDLYYAMDYWGQGTSVTVSS VL: EIVLTQSPTTMAASPGEKITITCSASSSISSNYLHWYQQKPGFSPKLLIYRTSNLASGVPARFSGSGSGTSYSLTIGTMEAEDVATYYCQQGSSIPFTFGSGTKLEIKR | binds | no binding | 

— US20230034474A1 (AC IMMUNE, published 2023)
